Reference: publication PMC3321547 (Biochemistry, 2009)
Where “and” joins values, the source holds several entries; their conditions need not be identical. Equal values may be shown once.

Assays:
[1] = biological target: T1, DKH412 (Drosophila kinesin heavy chain residues 1-412, dimeric head construct) (Drosophila, UniProt P17210 1-412); experiment: inhibition of mADP release from the heads
[2] = biological target: T1, DKH412 (Drosophila kinesin heavy chain …); experiment: inhibition of basal steady state ATPase
[3] = biological target: T1, DKH412 (Drosophila kinesin heavy chain …); experiment: inhibition of basal steady state ATPase; remark: listed apart in the source
[4] = biological target: T1, DKH412 (Drosophila kinesin heavy chain …); experiment: inhibition of mADP release from the heads; remark: listed apart in the source
[5] = biological target: T1, DKH412 (Drosophila kinesin heavy chain …); experiment: co-sedimentation
[6] = biological target: T1, DKH412 (Drosophila kinesin heavy chain …); experiment: FRET or BRET

B1: NF910-952 (non-fusion kinesin tail peptide, residues 910-952) (peptide)
chain: not shown
Kd [1]: 330 nM | Kd [2]: 66 nM | stoichiometry N [3]: 1 tail peptide per two head peptides | Kd [4]: 21 nM

AVRQKHLGRRGPQAQIAKPIRSGQGATS (domain or fragment, Drosophila) [TT927-952 (thioredoxin fusion of kinesin tail residues 927-952)]
Kd [3]: < 100 nM

B2: TT910-952mGFP (thioredoxin fusion of kinesin tail residues 910-952 with C-terminal mGFP) (domain or fragment)
chain: not shown
stoichiometry N [5]: < 0.5 TT910-952mGFP per DKH412 monomer and ~0.5 tail peptide per head peptide

B3: NF910-952mGFP (non-fusion kinesin tail peptide 910-952 with C-terminal mGFP) (domain or fragment)
chain: not shown
Kd [6]: 400 nM | koff [6]: ~32 s⁻¹ | observed rate of dissociation with a 5-fold excess of unlabelled tail (trace b) [6]: 30.9 s⁻¹ | observed rate of dissociation with a 20-fold excess of unlabelled tail (trace c) [6]: 32.8 s⁻¹
